The values that follow come from US20110009310A1 (CELECURE, published 2011).

In test [1] the target is VEGFR2 (isolated recombinant receptor) (UniProt P35968 20-764, limits assumed). The test can be described thus: modified ELISA; CD44-3MUT coated on wells, recombinant VEGFR2 added, detected with anti-VEGFR antibody. As for the experimental part:
(§1) Modified ELISA tests to evaluate the binding of VEGFR2 (panel A) and VEGFR1 (panel B) to immobilized CD44-3MUT. […] Nonspecific binding was blocked with 2.5% non-fat dry milk solution. VEGFR1 and VEGFR2 were added into the coated wells and incubated for 1 h at RT. VEGFR binding was detected with anti-VEGFR antibodies
(§2) We have developed a modified ELISA test (to detect CD44-3MUT binding specificity to isolated recombinant receptors VEGFR1 and VEGFR2).
On the technique in general: In an ELISA, binding on a coated surface is turned into a signal by an enzyme label.

Test [2] concerns the target VEGFR1 (isolated recombinant receptor) (UniProt P17948 27-756, limits assumed). The test can be described thus: modified ELISA; CD44-3MUT coated on wells, recombinant VEGFR1 added, detected with anti-VEGFR antibody. The method, then:
as §1, §2

Sequence of VEGFR2 (isolated recombinant receptor) (P35968 20-764 limits assumed): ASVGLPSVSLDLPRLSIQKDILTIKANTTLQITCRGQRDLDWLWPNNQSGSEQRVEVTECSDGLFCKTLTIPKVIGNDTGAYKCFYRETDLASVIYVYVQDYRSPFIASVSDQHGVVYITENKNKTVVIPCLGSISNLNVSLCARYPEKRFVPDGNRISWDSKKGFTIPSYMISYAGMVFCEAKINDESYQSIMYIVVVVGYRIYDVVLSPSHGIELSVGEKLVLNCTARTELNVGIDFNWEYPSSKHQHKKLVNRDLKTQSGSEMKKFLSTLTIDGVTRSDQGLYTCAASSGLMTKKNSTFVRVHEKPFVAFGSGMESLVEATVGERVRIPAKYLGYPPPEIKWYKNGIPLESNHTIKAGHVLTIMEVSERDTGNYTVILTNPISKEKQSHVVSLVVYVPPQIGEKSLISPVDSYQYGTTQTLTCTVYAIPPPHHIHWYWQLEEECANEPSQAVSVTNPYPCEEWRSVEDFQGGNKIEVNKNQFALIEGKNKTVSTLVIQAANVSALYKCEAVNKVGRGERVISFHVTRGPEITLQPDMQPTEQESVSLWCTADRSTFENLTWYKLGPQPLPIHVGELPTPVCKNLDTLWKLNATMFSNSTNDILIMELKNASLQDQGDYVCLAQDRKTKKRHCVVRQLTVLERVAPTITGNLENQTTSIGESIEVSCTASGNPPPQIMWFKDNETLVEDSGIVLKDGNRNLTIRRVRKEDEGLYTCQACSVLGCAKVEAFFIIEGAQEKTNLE
Sequence of VEGFR1 (isolated recombinant receptor) (P17948 27-756 limits assumed): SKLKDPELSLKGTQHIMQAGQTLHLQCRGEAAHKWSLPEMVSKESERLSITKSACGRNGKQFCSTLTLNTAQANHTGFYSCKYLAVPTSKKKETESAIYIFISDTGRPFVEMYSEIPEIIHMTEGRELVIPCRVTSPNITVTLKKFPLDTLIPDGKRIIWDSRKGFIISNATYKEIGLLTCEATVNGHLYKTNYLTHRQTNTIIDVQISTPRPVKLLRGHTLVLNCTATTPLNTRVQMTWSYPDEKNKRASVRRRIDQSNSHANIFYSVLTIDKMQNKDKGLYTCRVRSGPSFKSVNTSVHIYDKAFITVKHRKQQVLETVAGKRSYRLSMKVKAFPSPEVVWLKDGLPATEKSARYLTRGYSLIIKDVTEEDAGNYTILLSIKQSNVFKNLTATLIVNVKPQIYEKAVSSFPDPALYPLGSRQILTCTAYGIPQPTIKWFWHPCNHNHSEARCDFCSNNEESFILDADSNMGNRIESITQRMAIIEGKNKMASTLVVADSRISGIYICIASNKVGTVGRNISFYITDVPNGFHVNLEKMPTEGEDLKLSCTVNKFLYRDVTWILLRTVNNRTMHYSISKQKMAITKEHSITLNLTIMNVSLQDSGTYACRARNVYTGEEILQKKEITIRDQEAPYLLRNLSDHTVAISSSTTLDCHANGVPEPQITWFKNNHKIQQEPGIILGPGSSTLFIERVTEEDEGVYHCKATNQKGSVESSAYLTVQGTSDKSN

B1: CD44HABD^R41AR78SY79S (non-HA-binding triple mutant of the human CD44 hyaluronic acid binding domain) (other)
chain: QIDLNMTCRFAGVFHVEKNGAYSISRTEAADLCKAFNSTLPTMAQMEKALSIGFETCSSGFIEGHVVIPRIHPNSICAANNTGVYILTSNTSQYDTYCFNASAPPEEDCTSV
notes: Made in E. coli, non-glycosylated; also called CD44-3MUT; 3MUT
As for B1, the binding result in test [1] and in test [2] was “no binding” in each case.
